Assay results published in paper PMC9145999.

Biological target: main protease from canine coronavirus (CCoV M^pro) (canine coronavirus)
Experiment: crystal structure; CCoV M^pro incubated with two-fold molar excess of GC376 at 4 °C for 1 h; crystals from 0.2 M sodium citrate, 0.1 M Bis Tris propane 7.0, 25% w/v PEG 3350 at 20 °C; 2.75 Å, space group C2, eight protomers in the asymmetric unit

“main protease from canine coronavirus (CCoV M^pro) (enzyme)” showed a stoichiometry N of 2.
